# Measured values taken from article PMC11272584 (Nature Metabolism, 2024).
# T1: GIPR E463Q (Homo sapiens, UniProt P48546, E463Q)
# T1 construct: host or cells: HEK293
# T1 sequence (P48546 22-466 E463Q): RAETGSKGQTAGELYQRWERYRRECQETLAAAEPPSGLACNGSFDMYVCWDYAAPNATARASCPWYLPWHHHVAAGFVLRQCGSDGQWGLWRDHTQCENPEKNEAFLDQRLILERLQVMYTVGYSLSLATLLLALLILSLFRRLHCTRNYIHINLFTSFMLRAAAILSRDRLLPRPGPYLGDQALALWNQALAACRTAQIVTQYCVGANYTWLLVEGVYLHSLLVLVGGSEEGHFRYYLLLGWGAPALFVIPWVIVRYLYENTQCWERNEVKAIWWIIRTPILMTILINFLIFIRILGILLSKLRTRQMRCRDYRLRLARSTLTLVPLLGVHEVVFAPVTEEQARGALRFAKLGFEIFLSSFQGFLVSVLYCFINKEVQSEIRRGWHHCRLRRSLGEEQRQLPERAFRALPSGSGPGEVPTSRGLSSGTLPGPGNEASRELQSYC
# T2: GIPR T25R (Homo sapiens, UniProt P48546, T25R)
# T2 construct: host or cells: HEK293
# T2 sequence (P48546 22-466 T25R): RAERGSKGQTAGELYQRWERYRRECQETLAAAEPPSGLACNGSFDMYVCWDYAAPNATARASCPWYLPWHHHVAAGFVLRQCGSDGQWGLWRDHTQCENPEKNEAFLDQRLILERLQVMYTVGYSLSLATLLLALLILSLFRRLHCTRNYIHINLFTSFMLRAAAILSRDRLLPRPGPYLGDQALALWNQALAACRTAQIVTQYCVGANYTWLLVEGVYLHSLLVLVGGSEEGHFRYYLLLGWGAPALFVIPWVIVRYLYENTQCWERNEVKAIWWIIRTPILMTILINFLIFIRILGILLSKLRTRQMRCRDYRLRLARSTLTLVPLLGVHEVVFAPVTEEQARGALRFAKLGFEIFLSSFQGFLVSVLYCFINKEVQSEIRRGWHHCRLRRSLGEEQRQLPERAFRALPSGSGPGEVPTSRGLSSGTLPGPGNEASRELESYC
# T3: GIPR R38L (Homo sapiens, UniProt P48546, R38L)
# T3 construct: host or cells: HEK293
# T3 sequence (P48546 22-466 R38L): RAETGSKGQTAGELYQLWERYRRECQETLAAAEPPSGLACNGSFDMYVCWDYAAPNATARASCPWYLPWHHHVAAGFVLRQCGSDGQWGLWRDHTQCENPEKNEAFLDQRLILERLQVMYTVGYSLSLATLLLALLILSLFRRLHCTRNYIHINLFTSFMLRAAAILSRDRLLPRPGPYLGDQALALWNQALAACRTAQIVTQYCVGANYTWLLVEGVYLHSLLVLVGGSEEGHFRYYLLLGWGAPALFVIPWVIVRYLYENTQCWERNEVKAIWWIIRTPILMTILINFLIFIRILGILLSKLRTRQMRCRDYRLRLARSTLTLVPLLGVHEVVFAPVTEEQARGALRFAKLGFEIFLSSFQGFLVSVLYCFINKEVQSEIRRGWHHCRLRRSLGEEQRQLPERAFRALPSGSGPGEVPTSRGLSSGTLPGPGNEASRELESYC
# T4: GIPR R43G (Homo sapiens, UniProt P48546, R43G)
# T4 construct: host or cells: HEK293
# T4 sequence (P48546 22-466 R43G): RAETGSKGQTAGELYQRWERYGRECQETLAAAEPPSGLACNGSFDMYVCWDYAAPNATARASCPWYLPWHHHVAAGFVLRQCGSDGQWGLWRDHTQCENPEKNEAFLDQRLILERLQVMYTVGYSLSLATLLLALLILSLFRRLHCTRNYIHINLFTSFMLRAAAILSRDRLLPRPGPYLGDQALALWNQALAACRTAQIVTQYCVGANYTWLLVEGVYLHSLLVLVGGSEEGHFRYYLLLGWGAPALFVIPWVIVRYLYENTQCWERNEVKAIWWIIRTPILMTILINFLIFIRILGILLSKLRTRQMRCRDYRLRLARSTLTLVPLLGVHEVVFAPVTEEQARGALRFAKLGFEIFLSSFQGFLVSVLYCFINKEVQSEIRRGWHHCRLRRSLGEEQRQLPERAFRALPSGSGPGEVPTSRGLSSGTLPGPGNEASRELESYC
# Experiments:
# [1] = tested on: GIPR W90Lfs*17; assay: cAMP accumulation; format: cell-based, human; settings: normalized to WT efficacy at 100 pM; n = 5
# Experimental: HEK293 (CRL-1573, American Type Culture Collection) and β-arrestin 1/2 knockout cells, generated from HEK293A[48], were used for cAMP measurement, homologues competition binding and β-arrestin 2 recruitment. For the internalization assay, endosomal signalling and basal receptor localization experiments, HEK293A (R70507, Thermo Fisher) cells were used. Both cell lines were cultured at 5% CO2 at 37 °C in Roswell Park Memorial Institute GlutaMAX-I supplemented with 10% fetal bovine serum, 180 units ml^−1 penicillin, and 45 g ml^−1 streptomycin. For the cAMP and binding experiments, cells were transfected with the calcium phosphate precipitation method[49]. The polyethyleneimine (PEI) transfection method was used for the β-arrestin 2 recruitment assays[50], endosomal signalling and basal receptor localization assays, while the lipofectamine transfection method was used for the internalization assay.
# (§1) cAMP production was measured with the DiscoverX Hithunter cAMP assay according to the manufacturer’s protocol (DiscoverX). […] On the day of the assay, the cells were washed twice with HEPES-buffered saline (HBS) and incubated with HBS and 1 mM 3-isobutyl-1-methylxanthine for 30 min at 37 °C. […] After a 3-h incubation on a shaking table in the dark, the cAMP accumulation was measured based on luminescence with a Perkin Elmer EnVision 2104 Multilabel Microplate Reader. […]
# [2] = biological target: GIPR C84Pfs*70; assay: Homologous competition binding; set-up: species or system human; key: NB: no binding; settings: n = 3
# Experimental: (§2) Binding experiments were performed simultaneously with the same transiently transfected HEK293 cells used for the cAMP experiments to enable the correlation of receptor expression with signalling between assays. In brief, 1 day before the assay, the transfected cells were seeded in a clear 96-well plate. […] On the assay day, the cells were washed twice with 4 °C binding buffer (50 mM HEPES buffer (pH 7.2), 1 mM CaCl2, 5 mM MgCl2 and 0.5% (wt/vol) bovine serum albumin) and incubated for 15 minutes at 4 °C. […] After incubation, the cells were washed in ice-cold binding buffer and lysed with 200 mmol l^−1 NaOH with 1% sodium dodecyl sulphate for 30 min. The gamma radiation was measured with a 2470 Wizard2 Automatic Gamma Counter.
# (§3) To obtain Emax, EC50, Bmax, Kd and IC50 values, we analysed the data with the non-linear regression curve fitting program GraphPad Prism Software 9 (GraphPad).
# (§4) The Bmax was calculated according to the following equation[51]: Bmax=B0×IC50/[L] in which B0 represents the total specific binding and [L] is the ligand concentration. The equilibrium dissociation constant (Kd) was obtained with the equation[51]: Kd=IC50−[L]
# [3] = biological target: GIPR Y258Sfs*50; assay: Homologous competition binding; set-up: species or system human; key: NB: no binding; settings: n = 4
# Experimental: as §2, §3, §4
# [4] = tested on: GIPR W90Lfs*17; assay: Homologous competition binding; set-up: species or system human; settings: normalized to WT GIPR; SEM 0.5, n = 3
# Experimental: as §2, §3, §4
# [5] = biological target: T1, GIPR E463Q; assay: cAMP accumulation; format: cell-based
# Experimental: (§5) HEK293 (CRL-1573, American Type Culture Collection) and β-arrestin 1/2 knockout cells, generated from HEK293A[48], were used for cAMP measurement, homologues competition binding and β-arrestin 2 recruitment. […] Both cell lines were cultured at 5% CO2 at 37 °C in Roswell Park Memorial Institute GlutaMAX-I supplemented with 10% fetal bovine serum, 180 units ml^−1 penicillin, and 45 g ml^−1 streptomycin. For the cAMP and binding experiments, cells were transfected with the calcium phosphate precipitation method[49].
# (§6) cAMP production was measured with the DiscoverX Hithunter cAMP assay according to the manufacturer’s protocol (DiscoverX). […] On the day of the assay, the cells were washed twice with HEPES-buffered saline (HBS) and incubated with HBS and 1 mM 3-isobutyl-1-methylxanthine for 30 min at 37 °C. […] After the incubation, the assay medium was removed from the plate and the cells were washed with 30 µl PBS and treated with 40 µl enzyme donor–lysis buffer–chemiluminescent reagents and 10 µl cAMP antibodies for 60 min before 40 µl enzyme acceptor solution added. After a 3-h incubation on a shaking table in the dark, the cAMP accumulation was measured based on luminescence with a Perkin Elmer EnVision 2104 Multilabel Microplate Reader.
# [6] = tested on: GIPR variants (groups); assay: β-arrestin 2 recruitment (BRET); settings: for In vitro groups (β-arrestin): arr part of the in vitro group; for Beta, Barr: in vitro β-arrestin recruitment per GIPR variant;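 for all read-outs here: BRET readout of β-arrestin 2 recruitment in transiently transfected HEK293 cells expressing WT GIPR or a GIPR variant plus GPCR kinase 2, Rluc8 donor and citrine acceptor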
# [7] = tested on: GIPR variants (groups); assay: cAMP accumulation; format: cell-based, human; settings: for In vitro groups (cAMP): cAMP part of the in vitro group; for percentage_camp: cAMP production compared with WT; for Beta, cAMP: in vitro cAMP production per GIPR variant
# [8] = biological target: T2, GIPR T25R; assay: cAMP accumulation; format: cell-based
# Experimental: as §5
# cAMP production was measured with the DiscoverX Hithunter cAMP assay according to the manufacturer’s protocol (DiscoverX). […] On the day of the assay, the cells were washed twice with HEPES-buffered saline (HBS) and incubated with HBS and 1 mM 3-isobutyl-1-methylxanthine for 30 min at 37 °C. […] After the incubation, the assay medium was removed from the plate and the cells were washed with 30 µl PBS and treated with 40 µl enzyme donor–lysis buffer–chemiluminescent reagents and 10 µl cAMP antibodies for 60 min before 40 µl enzyme acceptor solution added. After a 3-h incubation on a shaking table in the dark, the cAMP accumulation was measured based on luminescence with a Perkin Elmer EnVision 2104 Multilabel Microplate Reader. […]
# [9] = biological target: T3, GIPR R38L; assay: cAMP accumulation; format: cell-based
# Experimental: HEK293 (CRL-1573, American Type Culture Collection) and β-arrestin 1/2 knockout cells, generated from HEK293A[48], were used for cAMP measurement, homologues competition binding and β-arrestin 2 recruitment. […] Both cell lines were cultured at 5% CO2 at 37 °C in Roswell Park Memorial Institute GlutaMAX-I supplemented with 10% fetal bovine serum, 180 units ml^−1 penicillin, and 45 g ml^−1 streptomycin. For the cAMP and binding experiments, cells were transfected with the calcium phosphate precipitation method[49]. The polyethyleneimine (PEI) transfection method was used for the β-arrestin 2 recruitment assays[50], endosomal signalling and basal receptor localization assays, while the lipofectamine transfection method was used for the internalization assay.
# as §1
# [10] = biological target: T4, GIPR R43G; assay: cAMP accumulation; format: cell-based
# Experimental: as §5, §6
Molecule,cAMP (Efficacy of 100 pM) [1],Kd (Binding) [2],Binding (Bmax) ([2]; normalized to WT GIPR),Kd (Binding) [3],Binding (Bmax) ([3]; normalized to WT GIPR),Binding (Bmax) [4],Efficacy at 100pmol (cAMP) [5],In vitro groups (β-arrestin) [6],"Beta, Barr [6]",In vitro groups (cAMP) [7],percentage_camp [7] [% cAMP],"Beta, cAMP [7]",Efficacy at 100pmol (cAMP) [8],Efficacy at 100pmol (cAMP) [9],Efficacy at 100pmol (cAMP) [10]
GIP(1-42),0.531,NB,NB,NB,NB,1.36,,,,,,,,,
E463Q (protein) RAETGSKGQTAGELYQRWERYRRECQETLAAAEPPSGLACNGSFDMYVCWDYAAPNATARASCPWYLPWHHHVAAGFVLRQCGSDGQWGLWRDHTQCENPEKNEAFLDQRLILERLQVMYTVGYSLSLATLLLALLILSLFRRLHCTRNYIHINLFTSFMLRAAAILSRDRLLPRPGPYLGDQALALWNQALAACRTAQIVTQYCVGANYTWLLVEGVYLHSLLVLVGGSEEGHFRYYLLLGWGAPALFVIPWVIVRYLYENTQCWERNEVKAIWWIIRTPILMTILINFLIFIRILGILLSKLRTRQMRCRDYRLRLARSTLTLVPLLGVHEVVFAPVTEEQARGALRFAKLGFEIFLSSFQGFLVSVLYCFINKEVQSEIRRGWHHCRLRRSLGEEQRQLPERAFRALPSGSGPGEVPTSRGLSSGTLPGPGNEASRELQSYC,,,,,,,0.9097,WT-like_arr,0.4933,WT-like_camp,>50,0.9097,,,
T25R (protein) RAERGSKGQTAGELYQRWERYRRECQETLAAAEPPSGLACNGSFDMYVCWDYAAPNATARASCPWYLPWHHHVAAGFVLRQCGSDGQWGLWRDHTQCENPEKNEAFLDQRLILERLQVMYTVGYSLSLATLLLALLILSLFRRLHCTRNYIHINLFTSFMLRAAAILSRDRLLPRPGPYLGDQALALWNQALAACRTAQIVTQYCVGANYTWLLVEGVYLHSLLVLVGGSEEGHFRYYLLLGWGAPALFVIPWVIVRYLYENTQCWERNEVKAIWWIIRTPILMTILINFLIFIRILGILLSKLRTRQMRCRDYRLRLARSTLTLVPLLGVHEVVFAPVTEEQARGALRFAKLGFEIFLSSFQGFLVSVLYCFINKEVQSEIRRGWHHCRLRRSLGEEQRQLPERAFRALPSGSGPGEVPTSRGLSSGTLPGPGNEASRELESYC,,,,,,,,LoF_arr,0.193,WT-like_camp,>50,0.6972,0.6972,,
R38L (protein) RAETGSKGQTAGELYQLWERYRRECQETLAAAEPPSGLACNGSFDMYVCWDYAAPNATARASCPWYLPWHHHVAAGFVLRQCGSDGQWGLWRDHTQCENPEKNEAFLDQRLILERLQVMYTVGYSLSLATLLLALLILSLFRRLHCTRNYIHINLFTSFMLRAAAILSRDRLLPRPGPYLGDQALALWNQALAACRTAQIVTQYCVGANYTWLLVEGVYLHSLLVLVGGSEEGHFRYYLLLGWGAPALFVIPWVIVRYLYENTQCWERNEVKAIWWIIRTPILMTILINFLIFIRILGILLSKLRTRQMRCRDYRLRLARSTLTLVPLLGVHEVVFAPVTEEQARGALRFAKLGFEIFLSSFQGFLVSVLYCFINKEVQSEIRRGWHHCRLRRSLGEEQRQLPERAFRALPSGSGPGEVPTSRGLSSGTLPGPGNEASRELESYC,,,,,,,,WT-like_arr,0.8228,WT-like_camp,>50,0.843,,0.843,
R43G (protein) RAETGSKGQTAGELYQRWERYGRECQETLAAAEPPSGLACNGSFDMYVCWDYAAPNATARASCPWYLPWHHHVAAGFVLRQCGSDGQWGLWRDHTQCENPEKNEAFLDQRLILERLQVMYTVGYSLSLATLLLALLILSLFRRLHCTRNYIHINLFTSFMLRAAAILSRDRLLPRPGPYLGDQALALWNQALAACRTAQIVTQYCVGANYTWLLVEGVYLHSLLVLVGGSEEGHFRYYLLLGWGAPALFVIPWVIVRYLYENTQCWERNEVKAIWWIIRTPILMTILINFLIFIRILGILLSKLRTRQMRCRDYRLRLARSTLTLVPLLGVHEVVFAPVTEEQARGALRFAKLGFEIFLSSFQGFLVSVLYCFINKEVQSEIRRGWHHCRLRRSLGEEQRQLPERAFRALPSGSGPGEVPTSRGLSSGTLPGPGNEASRELESYC,,,,,,,,LoF_arr,0.4783,WT-like_camp,>50,1.1583,,,1.1583
